Target: the molecule itself
Assay: crystal structure

B1: Enterococcus faecalis Cas2 (natural protein, UniProt A0A3N3FLR9 1-109, looked up)
chain: MSYRYMRLLLMFDMPTDTASDRKAYRKFRKFLINEGFIMHQFSVYSKILLNDTANKAMLARLKQNNPQRGLITLLNVTEKQFSRMIYLHGEQDNRVANSDERIVFLGEE
For B1, the “stoichiometry N” value was 2.

From publication PMC5832332 (Nature, 2017)
